Test results taken from patent US20160168266A1 (SBI BIOTECH, published 2016).

T1: human phospholipase D4 (PLD4) protein (human, UniProt Q96BZ4 1-506)
T1 sequence: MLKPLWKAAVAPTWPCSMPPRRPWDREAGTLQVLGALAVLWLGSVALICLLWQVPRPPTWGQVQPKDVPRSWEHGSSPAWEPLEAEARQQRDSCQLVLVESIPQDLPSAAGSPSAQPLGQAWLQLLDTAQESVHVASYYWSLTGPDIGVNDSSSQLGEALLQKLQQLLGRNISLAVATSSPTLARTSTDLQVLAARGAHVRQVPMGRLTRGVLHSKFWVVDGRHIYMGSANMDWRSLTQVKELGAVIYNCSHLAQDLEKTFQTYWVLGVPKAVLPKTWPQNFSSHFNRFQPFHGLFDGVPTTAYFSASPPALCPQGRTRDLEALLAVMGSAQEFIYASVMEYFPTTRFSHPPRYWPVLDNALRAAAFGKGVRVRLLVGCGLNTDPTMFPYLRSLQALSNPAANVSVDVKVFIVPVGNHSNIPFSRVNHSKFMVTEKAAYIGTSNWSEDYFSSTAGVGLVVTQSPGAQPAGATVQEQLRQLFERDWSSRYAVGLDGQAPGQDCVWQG


Key:
[1] = target: T1, human phospholipase D4 (PLD4) protein; assay: cell-based or functional assay
[2] = target: T1, human phospholipase D4 (PLD4) protein; assay: FACS screening of hybridoma culture supernatant (CAL-1 cells)

Binder | PLD4+ activated B cells after culture of PBMC with CpG2006 and the chimeric antibody, with control Ig treatment taken as 100% [1] | binding result [2]
chimeric 5B7 antibody (antibody, V domains shown) VH: EVQLQQSGPELVKPGASVKISCKASGYTFTDYNLHWVKQSHGKSLEWIGYIYPYNGNTGYNQKFKRKATLTVDNSSGTVYMELRSLTSEDSAVYYCARGGIYDDYYDYAIDYWGQGTSVTVSS VL: DIQMTQSPASLSVSVGETVAITCRASENIYSHIAWYQQKEGKSPQRLVYGATNLAHGVPSRFSGSGSGTQYSLKINSLQSEDFGSYYCQHFWGTPWTFGGGTKLEIKR | 25.8% | 
chimeric 3B4 antibody (antibody, V domains shown) VH: EVQLQQSGTVLSRPGASVTMSCKASGDSFTTYWMHWVKQRPGQGLEWIGAIYPGNSETSYNQKFKGKAKLTAVTSASTAYMEFTSLTNEDSAVYYCTGGYSDFDYWGQGTTLTVSS VL: DILMTQSPSSMSVSLGDTVSITCHASQGIRSNIGWLQQKPGKSFKGLIFHGTNLEDGVPSRFSGRGSGADYSLTINSLESEDFADYYCVQYVQFPPTFGSGTKLEIRR | 70.2% | 
anti-PLD4 mouse 8C11 antibody (antibody, mouse IgG2b, V domains shown, Mouse IgG2b, kappa monoclonal antibody) VH: QVQLQQSGAELVKPGASVKLSCKASGYTFTSYYLYWVRQRPGQGLEWIGLINPTNSDTIFNEKFKSKATLTVDKSSSTAYMQLSSLTSEDSAVYYCTREGGYGYGPFAYWGQGTLVTVSA VL: DVVMTQTPLSLPVSLGDQASISCTSSQTLVHSNGNTYLHWYLQKPGQSPKLLIYKVSNRFSGVPDRFSGSGSGTDFTLKISRVEAEDLGVYFCSHSTHVPFTFGSGTKLEIKR |  | binds
anti-PLD4 mouse 10C3 antibody (antibody, mouse IgG2a, V domains shown, Mouse IgG2a, kappa monoclonal antibody) VH: EVQLVESGGDLVRPGGSLKLSCAASGFSFSSYGMSWFRQTPDKRLEWVATISSGGSYIYYPESVKGRFTISRDNARNILYLQMSSLKSEDTAMYYCVRLYGGRRGYGLDYWGQGTSVTVSS VL: EIVMTQAAFSNPVTLGTSASISCRSSKSLLHSDGITYLYWYLQKPGQSPQLLIYQMSNLASGVPDRFSSSGSGTDFTLRISRVEAEDVGVYYCAQNLELYTFGGGTKLEIKR |  | binds
anti-PLD4 mouse 11D10 antibody (antibody, mouse IgG2b, V domains shown, Mouse IgG2b, kappa monoclonal antibody with the same CDRs as 10C3) VH: EVQLVESGGDLVRPGGSLKLSCAASGFSFSSYGMSWFRQTPDKRLEWVATISSGGSYIYYPESVKGRFTISRDNARNILYLQMSSLKSEDTAMYYCVRLYGGRRGYGLDYWGQGTSVTVSS VL: EIVMTQAAFSNPVTLGTSASISCRSSKSLLHSDGITYLYWYLQKPGQSPQLLIYQMSNLASGVPDRFSSSGSGTDFTLRISRVEAEDVGVYYCAQNLELYTFGGGTKLEIKR |  | binds
chimeric 13D4 antibody (antibody, V domains shown) VH: DVQLQESGPGLVKPSQSLSLTCSVTGYSITSHYYWTWIRQFPGNKLEWMGYISYDGSNNYNPSLKNRISITRDTSKNQFFLKLNSVTTEDTATYNCAREGPLYYGNPYWYFDVWGAGTTVTVSS VL: DIQMTQTTSSLSASLGDRVTISCRASQDIDNYLNWYQQKPDGTVKLLIYYTSRLHSGVPSRFSGSGSGTDYSLTISNLEQEDVATYFCQQFNTLPRTFGGGTKLEIKR | 56% | 
anti-PLD4 chimeric 11G9.6 antibody (antibody, human IgG1, kappa, V domains shown) VH: QVQLQQPGAELVKPGTSVKMSCKASGYTFTSYWMHWVKQRPGQGLEWIGDIYPGSDSTNYNEKFKSKATLTVDTSSSTAYMQLSSLTSEDSAVYYCARGGWLDAMDYWGQGTSVTVSS VL: DIQMTQTTSSLSASLGDRVTISCRASQDISNYLNWYQQKPDGTVKLLIYYTSRLHSGVPSRFSGSGSGTDYSLTISNLEQEDIATYFCQQGNTLPWTFGGGTKLEIKR | 66.4% | 
chimeric 13H11 antibody (antibody, V domains shown) VH: DVQLQESGPGLVKPSQSLSLTCSVTGYSISSHYYWSWIRQFPGNRLEWMGYISYDGSNNYNPSLKNRISITRDTSKNQFFLKLNSVTTEDTATYNCAREGPLYYGNPYWYFDVWGAGTTVTVSS VL: DIQMTQTTSSLSASLGGSVTISCRASQDIDNYLNWYQQKPDGTVKLLIYYTSRLHSGVPSRFSGSGSGTDYSLTISNLEQEDIATYFCQQFNTLPRTFGGGTKLEIKR | 55.3% | 
